# Source: article PMC12416549 (2024)
# T1: TNFR1 (Homo sapiens, UniProt P19438)
# T1 chain: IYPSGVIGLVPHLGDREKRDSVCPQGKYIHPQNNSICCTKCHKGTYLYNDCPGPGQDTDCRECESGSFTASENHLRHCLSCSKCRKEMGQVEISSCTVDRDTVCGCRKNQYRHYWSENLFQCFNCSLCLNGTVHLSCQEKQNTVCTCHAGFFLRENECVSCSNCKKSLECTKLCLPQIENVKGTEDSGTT
# Molecular target: T1, TNFR1
# Test: yeast display SC50
row,apparent Kd (screen),Binder
1,0.446 nM,K64Q (designed binder) SMEEEVEKAAKEYEKKKKEAIEKHLEKLKAKDKEAAERFLKELEEAAKEYAKDEAKTMSEEEAQRRAKKYKEKVLLSELSEEEQKEIKEAEEKLVRTILKYVEEAAK
2,24.4 nM,M58Y (designed binder) SMEEEVEKAAKEYEKKKKEAIEKHLEKLKAKDKEAAERFLKELEEAAKEYAKDEAKTYSEEEAKRRAKKYKEKVLLSELSEEEQKEIKEAEEKLVRTILKYVEEAAK
3,3 nM,Q84V (designed binder) SMEEEVEKAAKEYEKKKKEAIEKHLEKLKAKDKEAAERFLKELEEAAKEYAKDEAKTMSEEEAKRRAKKYKEKVLLSELSEEEVKEIKEAEEKLVRTILKYVEEAAK
4,0.653 nM,E34P (designed binder) SMEEEVEKAAKEYEKKKKEAIEKHLEKLKAKDKPAAERFLKELEEAAKEYAKDEAKTMSEEEAKRRAKKYKEKVLLSELSEEEQKEIKEAEEKLVRTILKYVEEAAK
5,0.446 nM,E83I (designed binder) SMEEEVEKAAKEYEKKKKEAIEKHLEKLKAKDKEAAERFLKELEEAAKEYAKDEAKTMSEEEAKRRAKKYKEKVLLSELSEEIQKEIKEAEEKLVRTILKYVEEAAK
6,10.4 nM,E49V (designed binder) SMEEEVEKAAKEYEKKKKEAIEKHLEKLKAKDKEAAERFLKELEEAAKVYAKDEAKTMSEEEAKRRAKKYKEKVLLSELSEEEQKEIKEAEEKLVRTILKYVEEAAK
7,0.869 nM,K64R (designed binder) SMEEEVEKAAKEYEKKKKEAIEKHLEKLKAKDKEAAERFLKELEEAAKEYAKDEAKTMSEEEARRRAKKYKEKVLLSELSEEEQKEIKEAEEKLVRTILKYVEEAAK
8,7.07 nM,R65F (designed binder) SMEEEVEKAAKEYEKKKKEAIEKHLEKLKAKDKEAAERFLKELEEAAKEYAKDEAKTMSEEEAKFRAKKYKEKVLLSELSEEEQKEIKEAEEKLVRTILKYVEEAAK
9,1.16 nM,E61V (designed binder) SMEEEVEKAAKEYEKKKKEAIEKHLEKLKAKDKEAAERFLKELEEAAKEYAKDEAKTMSEVEAKRRAKKYKEKVLLSELSEEEQKEIKEAEEKLVRTILKYVEEAAK
10,0.446 nM,A10S (designed binder) SMEEEVEKASKEYEKKKKEAIEKHLEKLKAKDKEAAERFLKELEEAAKEYAKDEAKTMSEEEAKRRAKKYKEKVLLSELSEEEQKEIKEAEEKLVRTILKYVEEAAK
11,2.25 nM,A20W (designed binder) SMEEEVEKAAKEYEKKKKEWIEKHLEKLKAKDKEAAERFLKELEEAAKEYAKDEAKTMSEEEAKRRAKKYKEKVLLSELSEEEQKEIKEAEEKLVRTILKYVEEAAK
12,0.718 nM,A9Y (designed binder) SMEEEVEKYAKEYEKKKKEAIEKHLEKLKAKDKEAAERFLKELEEAAKEYAKDEAKTMSEEEAKRRAKKYKEKVLLSELSEEEQKEIKEAEEKLVRTILKYVEEAAK
13,0.49 nM,K48I (designed binder) SMEEEVEKAAKEYEKKKKEAIEKHLEKLKAKDKEAAERFLKELEEAAIEYAKDEAKTMSEEEAKRRAKKYKEKVLLSELSEEEQKEIKEAEEKLVRTILKYVEEAAK

# The next lines start with the binder.
row,Binder,apparent Kd (screen)
1,V95I (designed binder) SMEEEVEKAAKEYEKKKKEAIEKHLEKLKAKDKEAAERFLKELEEAAKEYAKDEAKTMSEEEAKRRAKKYKEKVLLSELSEEEQKEIKEAEEKLIRTILKYVEEAAK,1.69 nM
2,I21N (designed binder) SMEEEVEKAAKEYEKKKKEANEKHLEKLKAKDKEAAERFLKELEEAAKEYAKDEAKTMSEEEAKRRAKKYKEKVLLSELSEEEQKEIKEAEEKLVRTILKYVEEAAK,1.69 nM
3,K31Q (designed binder) SMEEEVEKAAKEYEKKKKEAIEKHLEKLKAQDKEAAERFLKELEEAAKEYAKDEAKTMSEEEAKRRAKKYKEKVLLSELSEEEQKEIKEAEEKLVRTILKYVEEAAK,1.16 nM
4,K48Y (designed binder) SMEEEVEKAAKEYEKKKKEAIEKHLEKLKAKDKEAAERFLKELEEAAYEYAKDEAKTMSEEEAKRRAKKYKEKVLLSELSEEEQKEIKEAEEKLVRTILKYVEEAAK,0.653 nM
5,K93Y (designed binder) SMEEEVEKAAKEYEKKKKEAIEKHLEKLKAKDKEAAERFLKELEEAAKEYAKDEAKTMSEEEAKRRAKKYKEKVLLSELSEEEQKEIKEAEEYLVRTILKYVEEAAK,2.25 nM
6,K68Y (designed binder) SMEEEVEKAAKEYEKKKKEAIEKHLEKLKAKDKEAAERFLKELEEAAKEYAKDEAKTMSEEEAKRRAYKYKEKVLLSELSEEEQKEIKEAEEKLVRTILKYVEEAAK,3.99 nM
7,K33C (designed binder) SMEEEVEKAAKEYEKKKKEAIEKHLEKLKAKDCEAAERFLKELEEAAKEYAKDEAKTMSEEEAKRRAKKYKEKVLLSELSEEEQKEIKEAEEKLVRTILKYVEEAAK,0.653 nM
8,A30N (designed binder) SMEEEVEKAAKEYEKKKKEAIEKHLEKLKNKDKEAAERFLKELEEAAKEYAKDEAKTMSEEEAKRRAKKYKEKVLLSELSEEEQKEIKEAEEKLVRTILKYVEEAAK,0.79 nM
9,K64H (designed binder) SMEEEVEKAAKEYEKKKKEAIEKHLEKLKAKDKEAAERFLKELEEAAKEYAKDEAKTMSEEEAHRRAKKYKEKVLLSELSEEEQKEIKEAEEKLVRTILKYVEEAAK,0.593 nM
10,R96I (designed binder) SMEEEVEKAAKEYEKKKKEAIEKHLEKLKAKDKEAAERFLKELEEAAKEYAKDEAKTMSEEEAKRRAKKYKEKVLLSELSEEEQKEIKEAEEKLVITILKYVEEAAK,0.718 nM
11,F39M (designed binder) SMEEEVEKAAKEYEKKKKEAIEKHLEKLKAKDKEAAERMLKELEEAAKEYAKDEAKTMSEEEAKRRAKKYKEKVLLSELSEEEQKEIKEAEEKLVRTILKYVEEAAK,3 nM
12,E34R (designed binder) SMEEEVEKAAKEYEKKKKEAIEKHLEKLKAKDKRAAERFLKELEEAAKEYAKDEAKTMSEEEAKRRAKKYKEKVLLSELSEEEQKEIKEAEEKLVRTILKYVEEAAK,0.446 nM
13,E83F (designed binder) SMEEEVEKAAKEYEKKKKEAIEKHLEKLKAKDKEAAERFLKELEEAAKEYAKDEAKTMSEEEAKRRAKKYKEKVLLSELSEEFQKEIKEAEEKLVRTILKYVEEAAK,2.05 nM
14,K71W (designed binder) SMEEEVEKAAKEYEKKKKEAIEKHLEKLKAKDKEAAERFLKELEEAAKEYAKDEAKTMSEEEAKRRAKKYWEKVLLSELSEEEQKEIKEAEEKLVRTILKYVEEAAK,4.39 nM
15,L79W (designed binder) SMEEEVEKAAKEYEKKKKEAIEKHLEKLKAKDKEAAERFLKELEEAAKEYAKDEAKTMSEEEAKRRAKKYKEKVLLSEWSEEEQKEIKEAEEKLVRTILKYVEEAAK,6.43 nM
16,S1K (designed binder) KMEEEVEKAAKEYEKKKKEAIEKHLEKLKAKDKEAAERFLKELEEAAKEYAKDEAKTMSEEEAKRRAKKYKEKVLLSELSEEEQKEIKEAEEKLVRTILKYVEEAAK,0.446 nM
17,K71M (designed binder) SMEEEVEKAAKEYEKKKKEAIEKHLEKLKAKDKEAAERFLKELEEAAKEYAKDEAKTMSEEEAKRRAKKYMEKVLLSELSEEEQKEIKEAEEKLVRTILKYVEEAAK,3 nM
18,A35D (designed binder) SMEEEVEKAAKEYEKKKKEAIEKHLEKLKAKDKEDAERFLKELEEAAKEYAKDEAKTMSEEEAKRRAKKYKEKVLLSELSEEEQKEIKEAEEKLVRTILKYVEEAAK,2.25 nM
19,S59V (designed binder) SMEEEVEKAAKEYEKKKKEAIEKHLEKLKAKDKEAAERFLKELEEAAKEYAKDEAKTMVEEEAKRRAKKYKEKVLLSELSEEEQKEIKEAEEKLVRTILKYVEEAAK,1.54 nM
20,L25S (designed binder) SMEEEVEKAAKEYEKKKKEAIEKHSEKLKAKDKEAAERFLKELEEAAKEYAKDEAKTMSEEEAKRRAKKYKEKVLLSELSEEEQKEIKEAEEKLVRTILKYVEEAAK,1.05 nM
21,E45A (designed binder) SMEEEVEKAAKEYEKKKKEAIEKHLEKLKAKDKEAAERFLKELEAAAKEYAKDEAKTMSEEEAKRRAKKYKEKVLLSELSEEEQKEIKEAEEKLVRTILKYVEEAAK,2.05 nM
22,A46N (designed binder) SMEEEVEKAAKEYEKKKKEAIEKHLEKLKAKDKEAAERFLKELEENAKEYAKDEAKTMSEEEAKRRAKKYKEKVLLSELSEEEQKEIKEAEEKLVRTILKYVEEAAK,1.69 nM
